3 proteins from patent US20240295562 can be followed below.

In one series the target is T1, QP47 peptide (FAAAYPDDD).
T1 chain: FAAAYPDDD

In the next series the target is T2, RRLDEESILKQK
T2 chain: RRLDEESILKQK

The next series addresses T3, IAKLDEESILKQK
T3 chain: IAKLDEESILKQK

For another series, the target named is T4, QP514 (DQQRLIFAYPDDD).
T4 chain: DQQRLIFAYPDDD

The target of a further series is T5, WKELDEESILKQK
T5 chain: WKELDEESILKQK

A further series has as its target T6, KKLDEESILKQK
T6 chain: KKLDEESILKQK

B1: AP30 (protein)
chain: MEVRNMVDYELLKKVVEAPGVSGYEFLGIRDVVIEEIKDYVDEVKVDKLGNVIAHKKGEGPKVMIAAHMDQIGLMVTHIEKNGFLRVAPIGGVDPKTLIAQRFKVWIDKGKFIYGVGASVPPHIQKPEDRKKAPDWDQIFIDIGAESKEEAEDMGVKIGTVITWDGRLERLGKHRFVSIAFDDRIAVYTILEVAKQLKDAKADVYFVATVQEEVGLRGARTSAFGIEPDYGFAIDVTIAADIPGTPEHKQVTHLGKGTAIKIMDRSVICHPTIVRWLEELAKKHEIPYQLEILLGGGTDAGAIHLTKAGVPTGALSVPARYIHSNTEVVDERDVDATVELMTKALENIHELKIGGSHHHHHHHHHHGGGSGGGSGGGSGLNDFFEAQKIEWHEGGGSGGGSGGGSGLNDFFEAQKIEWHE
On to B1, for which the “RSC (rapid sequential cleavage) population, protein sequencing assay with AP30 (5 µM)” value in the series with QP47 peptide (FAAAYPDDD) was “The RSC population with AP30 was only ~25%”.

B2: AP37 (protein)
chain: MDLKGGESMVDWKLMQEIIEAPGVSGYEHLGIRDIVVDVLKEVADEVKVDKLGNVIAHFKGSSPRIMVAAHMDKIGVMVNHIDKDGYLHIVPIGGVLPETLVAQRIRFFTEKGERYGVVGVLPPHLRRGQEDKGSKIDWDQIVVDVGASSKEEAEEMGFRVGTVGEFAPNFTRLNEHRFATPYLDDRICLYAMIEAARQLGDHEADIYIVGSVQEEVGLRGARVASYAINPEVGIAMDVTFAKQPHDKGKIVPELGKGPVMDVGPNINPKLRAFADEVAKKYEIPLQVEPSPRPTGTDANMQINREGVATAVLSIPIRYMHSQVELADARDVDNTIKLAKALLEELKPMDFTPGHHHHHHHHHH
In the series with RRLDEESILKQK, B2 showed a Percent N-Terminal Residue Cut (HPLC assay), AP37 after conditioning, 1 µM of 70%; a Percent N-Terminal Residue Cut (HPLC assay), AP37 after conditioning, 10 µM of 100%; a Percent N-Terminal Residue Cut (HPLC assay), AP37 before conditioning, 1 µM of 8%; a Percent N-Terminal Residue Cut (HPLC assay), AP37 before conditioning, 10 µM of 26%. For the same protein, in the series with IAKLDEESILKQK, the Percent N-Terminal Residue Cut (HPLC assay), AP37 after conditioning, 1 µM came out at 74%; the Percent N-Terminal Residue Cut (HPLC assay), AP37 after conditioning, 10 µM came out at 100%; the Percent N-Terminal Residue Cut (HPLC assay), AP37 before conditioning, 1 µM was found to be 13%; the Percent N-Terminal Residue Cut (HPLC assay), AP37 before conditioning, 10 µM worked out at 57%. Further, in the series with QP514 (DQQRLIFAYPDDD), the “cleavage of arginine in protein sequencing assay, AP37 (40 µM) alone” value is “AP37 shows better efficiency cleaving arginine than PfuTET when alone”. In the series with WKELDEESILKQK, this protein came in with a Percent N-Terminal Residue Cut (HPLC assay), AP37 after conditioning, 1 µM of 97%; a Percent N-Terminal Residue Cut (HPLC assay), AP37 after conditioning, 10 µM of 99%; a Percent N-Terminal Residue Cut (HPLC assay), AP37 before conditioning, 1 µM of 18%; a Percent N-Terminal Residue Cut (HPLC assay), AP37 before conditioning, 10 µM of 55%. Further, in the series with KKLDEESILKQK, the Percent N-Terminal Residue Cut (HPLC assay), AP37 after conditioning, 1 µM was found to be 61%; the Percent N-Terminal Residue Cut (HPLC assay), AP37 after conditioning, 10 µM was found to be 100%; the Percent N-Terminal Residue Cut (HPLC assay), AP37 before conditioning, 1 µM worked out at 11%; the Percent N-Terminal Residue Cut (HPLC assay), AP37 before conditioning, 10 µM came to 71%.

B3: Pyrococcus horikoshii TET II Aminopeptidase (hTET II) (protein)
chain: MEVRNMVDYELLKKVVEAPGVSGYEFLGIRDVVIEEIKDYVDEVKVDKLGNVIAHKKGEGPKVMIAAHMDQIGLMVTHIEKNGFLRVAPIGGVDPKTLIAQRFKVWIDKGKFIYGVGASVPPHIQKPEDRKKAPDWDQIFIDIGAESKEEAEDMGVKIGTVITWDGRLERLGKHRFVSIAFDDRIAVYTILEVAKQLKDAKADVYFVATVQEEVGLRGARTSAFGIEPDYGFAIDVTIAADIPGTPEHKQVTHLGKGTAIKIMDRSVICHPTIVRWLEELAKKHEIPYQLEILLGGGTDAGAIHLTKAGVPTGALSVPARYIHSNTEVVDERDVDATVELMTKALENIHELKI
In the case of B3, the “RSC (rapid sequential cleavage) population, protein sequencing assay with hTETII (1 µM)” value with QP47 peptide (FAAAYPDDD) was “RSC population is ~40%”.
